# Molecular target: the molecule itself
# Experiment: SEC; purified protein incubated 1 hour in the dark, then Superdex 200 Increase 10/300 GL under dark condition; 20 mM Hepes pH 7.5, 200 mM NaCl
protein,measurement,value
"OptoLacI^L (LacI^(W220F, 311-LOV2)) (other, E. coli | Avena sativa, UniProt P03023 1-311, looked up, LOV2 domain of Avena sativa phototropin 1 (AsLOV2), residues 408-543; source: E. coli BL21 (DE3), plasmid pML364, purified (Ni-NTA twice, size exclusion chromatography)) MKPVTLYDVAEYAGVSYQTVSRVVNQASHVSAKTREKVEAAMAELNYIPNRVAQQLAGKQSLLIGVATSSLALHAPSQIVAAIKSRADQLGASVVVSMVERSGVEACKAAVHNLLAQRVSGLIINYPLDDQDAIAVEAACTNVPALFLDVSDQTPINSIIFSHEDGTRLGVEHLVALGHQQIALLAGPLSSVSARLRLAGWHKYLTRNQIQPIAEREGDFSAMSGFQQTMQMLNEGIVPTAMLVANDQMALGAMRAITESGLRVGADISVVGYDDTEDSSCYIPPLTTIKQDFRLLGQTSVDRLLQLSQGQLERIEKNFVITDPRLPDNPIIFASDSFLQLTEYSREEILGRNCRFLQGPETDRATVRKIRDAIDNQTEVTVQLINYTKSGKKFWNLFHLQPMRDQKGDVQYFIGVQLDGTEHVRDAAEREGVMLIKKTAENIDEAAAVKGNQLLPVSLVKRKTTLAPNTQTASPRALADSLMQLARQVSRLESGQ",binding result,binds
